The text below walks through data of the supplement of paper PMC9112550, “Optimization of the antimicrobial peptide Bac7 by deep mutational scanning” (BMC Biology, 2022).

For this series, the system named is Escherichia coli TOP10. The experiment in a line: shrunken log2 fold change of peptide-encoding DNA abundance (4.5 h post-induction vs induction); higher = less antimicrobial activity (less host growth inhibition). The following applies: time post-induction: 4.5 h; library: site-saturation at positions 5, 18, 19, 20.
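Further: peptides expressed intracellularly from a pBAD plasmid library in pooled LB shake-flask culture, induced with 0.3% L-arabinose, DNA abundance read by NGS, three biological replicates, DESeq2 with apeglm shrinkage.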

As to RRIRIRPPRLPRPRPRPLGEPRP, the “shrunken log2 fold change” value was -0.277.

Consider RRIRARPPRLPRPRPRPLEYPRP, for which the “shrunken log2 fold change” value was -0.498.

Turning to RRIRWRPPRLPRPRPRPIYMPRP, the “shrunken log2 fold change” value is -0.118.

Consider RRIRTRPPRLPRPRPRPVEDPRP, for which the “shrunken log2 fold change” value is 0.0389.

With RRIRFRPPRLPRPRPRPIIHPRP, the “shrunken log2 fold change” value is -0.795.

In the case of RRIRLRPPRLPRPRPRPKKDPRP, the “shrunken log2 fold change” value is 0.0575.

Take RRIRMRPPRLPRPRPRPCASPRP: the “shrunken log2 fold change” value amounted to 0.0954.

On to RRIRERPPRLPRPRPRPLHWPRP, for which the “shrunken log2 fold change” value was found to be 0.0186.

Turning to RRIRWRPPRLPRPRPRPKECPRP, the “shrunken log2 fold change” value stood at 0.236.

Turning to RRIRNRPPRLPRPRPRPNELPRP, the “shrunken log2 fold change” value worked out at 0.106.

With RRIRQRPPRLPRPRPRPWYSPRP, the “shrunken log2 fold change” value is -0.0193.

Take RRIRWRPPRLPRPRPRPLLQPRP: the “shrunken log2 fold change” value stood at 0.2.

RRIRMRPPRLPRPRPRPYTWPRP: the “shrunken log2 fold change” value is -0.101.

For RRIRCRPPRLPRPRPRPCELPRP, the “shrunken log2 fold change” value is -0.146.

Regarding RRIRCRPPRLPRPRPRPPNQPRP, the “shrunken log2 fold change” value was 0.107.

Take RRIRPRPPRLPRPRPRPRRSPRP: the “shrunken log2 fold change” value came to 0.124.

Regarding RRIRPRPPRLPRPRPRPWPSPRP, the “shrunken log2 fold change” value is -0.125.

Turning to RRIRPRPPRLPRPRPRPQEGPRP, the “shrunken log2 fold change” value is -0.259.

Take RRIRVRPPRLPRPRPRPDKEPRP: the “shrunken log2 fold change” value worked out at 0.000945.

On to RRIRTRPPRLPRPRPRPVMCPRP, for which the “shrunken log2 fold change” value was -0.222.

In the case of RRIRKRPPRLPRPRPRPSCRPRP, the “shrunken log2 fold change” value worked out at 0.0107.

With RRIRQRPPRLPRPRPRPAMAPRP, the “shrunken log2 fold change” value is -0.134.

On to RRIRYRPPRLPRPRPRPGMEPRP, for which the “shrunken log2 fold change” value is -0.0379.

On to RRIRGRPPRLPRPRPRPQPEPRP, for which the “shrunken log2 fold change” value worked out at 0.704.

Turning to RRIRNRPPRLPRPRPRPGTIPRP, the “shrunken log2 fold change” value was -0.316.

Turning to RRIRRRPPRLPRPRPRPMSHPRP, the “shrunken log2 fold change” value turned out to be 0.142.

Regarding RRIRVRPPRLPRPRPRPPPNPRP, the “shrunken log2 fold change” value was 0.73.

In the case of RRIRFRPPRLPRPRPRPCYIPRP, the “shrunken log2 fold change” value is -0.158.

Take RRIRQRPPRLPRPRPRPCKMPRP: the “shrunken log2 fold change” value worked out at 0.0276.

Consider RRIRGRPPRLPRPRPRPVMIPRP, for which the “shrunken log2 fold change” value was determined as 0.157.

RRIRPRPPRLPRPRPRPKRCPRP: the “shrunken log2 fold change” value is -0.0846.

As for RRIRHRPPRLPRPRPRPGHTPRP, the “shrunken log2 fold change” value came out at 0.105.

Consider RRIRPRPPRLPRPRPRPNLWPRP, for which the “shrunken log2 fold change” value is -0.0151.

As to RRIRCRPPRLPRPRPRPQWIPRP, the “shrunken log2 fold change” value was -0.692.

As to RRIRHRPPRLPRPRPRPMHNPRP, the “shrunken log2 fold change” value came to 0.708.

For RRIRSRPPRLPRPRPRPEDFPRP, the “shrunken log2 fold change” value is -0.149.

Consider RRIRTRPPRLPRPRPRPMYHPRP, for which the “shrunken log2 fold change” value was -0.0615.

Consider RRIRIRPPRLPRPRPRPKDVPRP, for which the “shrunken log2 fold change” value was -0.141.

In the case of RRIRQRPPRLPRPRPRPPSVPRP, the “shrunken log2 fold change” value was determined as 0.0958.

Take RRIRMRPPRLPRPRPRPVEKPRP: the “shrunken log2 fold change” value amounted to 1.01.

In the case of RRIRARPPRLPRPRPRPWPQPRP, the “shrunken log2 fold change” value stood at 0.403.

Take RRIRCRPPRLPRPRPRPSCMPRP: the “shrunken log2 fold change” value was -0.313.

With RRIRMRPPRLPRPRPRPIGYPRP, the “shrunken log2 fold change” value is -0.0789.

Regarding RRIRWRPPRLPRPRPRPSQWPRP, the “shrunken log2 fold change” value is -0.0949.

As to RRIRHRPPRLPRPRPRPGPKPRP, the “shrunken log2 fold change” value was -0.0906.

In the case of RRIRQRPPRLPRPRPRPVEYPRP, the “shrunken log2 fold change” value is -0.434.

As for RRIRQRPPRLPRPRPRPGGRPRP, the “shrunken log2 fold change” value is 0.456.

Turning to RRIRSRPPRLPRPRPRPGYRPRP, the “shrunken log2 fold change” value was -0.0248.

Consider RRIRKRPPRLPRPRPRPNTVPRP, for which the “shrunken log2 fold change” value turned out to be 0.126.

Turning to RRIRTRPPRLPRPRPRPCIIPRP, the “shrunken log2 fold change” value is -0.0804.

With RRIRERPPRLPRPRPRPSYFPRP, the “shrunken log2 fold change” value is -0.48.

On to RRIRMRPPRLPRPRPRPRFLPRP, for which the “shrunken log2 fold change” value was -0.00457.

Regarding RRIRQRPPRLPRPRPRPGMCPRP, the “shrunken log2 fold change” value was found to be 0.0819.

With RRIRFRPPRLPRPRPRPCQTPRP, the “shrunken log2 fold change” value is -0.414.

For the sequence RRIRNRPPRLPRPRPRPTWFPRP, the “shrunken log2 fold change” value was found to be 0.415.

In the case of RRIRNRPPRLPRPRPRPCHDPRP, the “shrunken log2 fold change” value was -0.0458.

With RRIRCRPPRLPRPRPRPQKDPRP, the “shrunken log2 fold change” value was -0.202.

RRIRLRPPRLPRPRPRPCWRPRP: the “shrunken log2 fold change” value turned out to be 0.0285.

On to RRIRVRPPRLPRPRPRPRLYPRP, for which the “shrunken log2 fold change” value was found to be 0.13.

For the sequence RRIRLRPPRLPRPRPRPMPNPRP, the “shrunken log2 fold change” value is -0.0177.

Take RRIRQRPPRLPRPRPRPVMNPRP: the “shrunken log2 fold change” value came to 0.0954.

For RRIRCRPPRLPRPRPRPGMTPRP, the “shrunken log2 fold change” value came to 0.0507.

For the sequence RRIRDRPPRLPRPRPRPFIPPRP, the “shrunken log2 fold change” value is -0.334.

Regarding RRIRDRPPRLPRPRPRPTPFPRP, the “shrunken log2 fold change” value is -0.13.

Regarding RRIRRRPPRLPRPRPRPILTPRP, the “shrunken log2 fold change” value was determined as 0.447.

For the sequence RRIRCRPPRLPRPRPRPPCPPRP, the “shrunken log2 fold change” value came out at 0.487.

In the case of RRIRVRPPRLPRPRPRPRPDPRP, the “shrunken log2 fold change” value came out at 0.216.

RRIRQRPPRLPRPRPRPLESPRP: the “shrunken log2 fold change” value was -0.0344.

With RRIRRRPPRLPRPRPRPLIGPRP, the “shrunken log2 fold change” value is -0.0159.

Turning to RRIRRRPPRLPRPRPRPVRIPRP, the “shrunken log2 fold change” value is -0.00526.

For RRIRGRPPRLPRPRPRPESIPRP, the “shrunken log2 fold change” value worked out at 0.483.

For the sequence RRIRYRPPRLPRPRPRPNSWPRP, the “shrunken log2 fold change” value is -0.0916.

In the case of RRIRCRPPRLPRPRPRPLFCPRP, the “shrunken log2 fold change” value was -0.442.

Take RRIRGRPPRLPRPRPRPVMPPRP: the “shrunken log2 fold change” value came to 0.16.

In the case of RRIRDRPPRLPRPRPRPDTDPRP, the “shrunken log2 fold change” value came out at 0.0647.

Turning to RRIRLRPPRLPRPRPRPCADPRP, the “shrunken log2 fold change” value amounted to 0.151.

Turning to RRIRPRPPRLPRPRPRPSVLPRP, the “shrunken log2 fold change” value came to 0.0488.

Consider RRIRLRPPRLPRPRPRPAPHPRP, for which the “shrunken log2 fold change” value was found to be 0.514.

With RRIRQRPPRLPRPRPRPKMCPRP, the “shrunken log2 fold change” value was -0.002.

As to RRIRTRPPRLPRPRPRPHKDPRP, the “shrunken log2 fold change” value is -0.973.

Regarding RRIRERPPRLPRPRPRPGNNPRP, the “shrunken log2 fold change” value was -0.426.

On to RRIRYRPPRLPRPRPRPRCMPRP, for which the “shrunken log2 fold change” value was -0.425.

On to RRIRFRPPRLPRPRPRPNADPRP, for which the “shrunken log2 fold change” value is -0.055.

Take RRIRKRPPRLPRPRPRPTDNPRP: the “shrunken log2 fold change” value stood at 0.219.

As to RRIRTRPPRLPRPRPRPCFSPRP, the “shrunken log2 fold change” value is -0.3.

In the case of RRIRRRPPRLPRPRPRPPHCPRP, the “shrunken log2 fold change” value stood at 1.08.

For the sequence RRIRYRPPRLPRPRPRPNMIPRP, the “shrunken log2 fold change” value was -1.34.

As for RRIRVRPPRLPRPRPRPLWRPRP, the “shrunken log2 fold change” value is 0.293.

As to RRIRKRPPRLPRPRPRPLRNPRP, the “shrunken log2 fold change” value was 0.653.

Consider RRIRSRPPRLPRPRPRPTTSPRP, for which the “shrunken log2 fold change” value came to 0.094.

On to RRIRIRPPRLPRPRPRPNATPRP, for which the “shrunken log2 fold change” value is -0.12.

Regarding RRIRARPPRLPRPRPRPQCQPRP, the “shrunken log2 fold change” value was 0.457.

For the sequence RRIRFRPPRLPRPRPRPCRFPRP, the “shrunken log2 fold change” value was -0.607.

In the case of RRIRNRPPRLPRPRPRPSDEPRP, the “shrunken log2 fold change” value is -0.189.

As to RRIRLRPPRLPRPRPRPEKYPRP, the “shrunken log2 fold change” value is -0.397.

For the sequence RRIRMRPPRLPRPRPRPWHFPRP, the “shrunken log2 fold change” value came to 0.201.

As for RRIRCRPPRLPRPRPRPVKDPRP, the “shrunken log2 fold change” value is -0.305.

For the sequence RRIRHRPPRLPRPRPRPGRMPRP, the “shrunken log2 fold change” value is -0.313.

For RRIRHRPPRLPRPRPRPPFSPRP, the “shrunken log2 fold change” value was -0.166.

As for RRIRKRPPRLPRPRPRPRRHPRP, the “shrunken log2 fold change” value came to 0.523.

In the case of RRIRCRPPRLPRPRPRPDQPPRP, the “shrunken log2 fold change” value came out at 0.171.

Consider RRIRVRPPRLPRPRPRPHTEPRP, for which the “shrunken log2 fold change” value is -0.042.

As to RRIRERPPRLPRPRPRPDTIPRP, the “shrunken log2 fold change” value is -0.06.

For the sequence RRIRVRPPRLPRPRPRPFVFPRP, the “shrunken log2 fold change” value is -0.0359.

As to RRIRLRPPRLPRPRPRPPEKPRP, the “shrunken log2 fold change” value came to 0.0964.

Regarding RRIRKRPPRLPRPRPRPFKVPRP, the “shrunken log2 fold change” value was -0.0542.

As for RRIRVRPPRLPRPRPRPRTLPRP, the “shrunken log2 fold change” value was -0.222.

Consider RRIRNRPPRLPRPRPRPECQPRP, for which the “shrunken log2 fold change” value came out at 0.00386.

RRIRYRPPRLPRPRPRPDDPPRP: the “shrunken log2 fold change” value was -0.239.

Take RRIRSRPPRLPRPRPRPIIHPRP: the “shrunken log2 fold change” value was -0.526.

Take RRIRIRPPRLPRPRPRPDECPRP: the “shrunken log2 fold change” value came out at 0.0238.

For RRIRGRPPRLPRPRPRPMNYPRP, the “shrunken log2 fold change” value is 0.00834.

Take RRIRPRPPRLPRPRPRPIIHPRP: the “shrunken log2 fold change” value was -0.707.

As for RRIRFRPPRLPRPRPRPIFPPRP, the “shrunken log2 fold change” value is -0.222.

On to RRIRPRPPRLPRPRPRPLWRPRP, for which the “shrunken log2 fold change” value is 0.446.

In the case of RRIRYRPPRLPRPRPRPQNPPRP, the “shrunken log2 fold change” value was -0.483.

As to RRIRHRPPRLPRPRPRPAANPRP, the “shrunken log2 fold change” value is -0.0763.

RRIRMRPPRLPRPRPRPCREPRP: the “shrunken log2 fold change” value was -0.126.

Regarding RRIRMRPPRLPRPRPRPFENPRP, the “shrunken log2 fold change” value was determined as 0.00631.

Turning to RRIRRRPPRLPRPRPRPTRWPRP, the “shrunken log2 fold change” value came out at 0.799.

As to RRIRGRPPRLPRPRPRPVNDPRP, the “shrunken log2 fold change” value is 0.368.

For the sequence RRIRFRPPRLPRPRPRPAMNPRP, the “shrunken log2 fold change” value is -0.102.

For RRIRRRPPRLPRPRPRPVGEPRP, the “shrunken log2 fold change” value turned out to be 0.333.

Take RRIRGRPPRLPRPRPRPKPDPRP: the “shrunken log2 fold change” value came out at 1.11.

As to RRIRWRPPRLPRPRPRPPKGPRP, the “shrunken log2 fold change” value worked out at 0.61.
